The target of this experiment is all other cases (NTSR1 nanodisc preparations other than WT in 100% POPC nanodiscs). Briefly: radioligand binding.

The term Kd denotes the constant that tells how readily two partners part at equilibrium.

“[3H]NTS ([3,11-tyrosyl-3,5-3H(N)]-neurotensin) (peptide)” gave a Kd of 0.5 nM.

Values taken from publication PMC4512254.
